Measurements published in IntAct's records for PubMed 35512704.

B1: Speckle-type POZ protein (Homo sapiens), O43791 (parent)
chain: MSRVPSPPPPAEMSSGPVAESWCYTQIKVVKFSYMWTINNFSFCREEMGEVIKSSTFSSGANDKLKWCLRVNPKGLDEESKDYLSLYLLLVSCPKSEVRAKFKFSILNAKGEETKAMESQRAYRFVQGKDWGFKKFIRRDFLLDEANGLLPDDKLTLFCEVSVVQDSVNISGQNTMNMVKVPECRLADELGGLWENSRFTDCCLCVAGQEFQAHKAILAARSPVFSAMFEHEMEESKKNRVEINDVEPEVFKEMMCFIYTGKAPNLDKMADDLLAAADKYALERLKVMCEDALCSNLSVENAAEILILADLHSADQLKTQAVDFINYHASDVLETSGWKSMVVSHPHLVAEAYRSLASAQCPFLGPPRKRLKQS

Variants of: B1
Conditions: with ikba_human NFKBIA

Row | effect of a mutation on the interaction | Variant
1 | with no effect | MSRVPSPPPPAEMSSGPVAESWCYTQIKVVKFSYMWTINNFSFCREEMGEVIKSSTFSSGANDKLKWCLRVNPKGLDEESKDYLSLYLLLVSCPKSEVRAKCKFSILNAKGEETKAMESQRAYRFVQGKDWGFKKFIRRDFLLDEANGLLPDDKLTLFCEVSVVQDSVNISGQNTMNMVKVPECRLADELGGLWENSRFTDCCLCVAGQEFQAHKAILAARSPVFSAMFEHEMEESKKNRVEINDVEPEVFKEMMCFIYTGKAPNLDKMADDLLAAADKYALERLKVMCEDALCSNLSVENAAEILILADLHSADQLKTQAVDFINYHASDVLETSGWKSMVVSHPHLVAEAYRSLASAQCPFLGPPRKRLKQS [F102C]

Variants of: B1
Conditions: with nox1_human NOX1, Q9Y5S8
Chain of nox1_human NOX1, Q9Y5S8 (Q9Y5S8 whole entry): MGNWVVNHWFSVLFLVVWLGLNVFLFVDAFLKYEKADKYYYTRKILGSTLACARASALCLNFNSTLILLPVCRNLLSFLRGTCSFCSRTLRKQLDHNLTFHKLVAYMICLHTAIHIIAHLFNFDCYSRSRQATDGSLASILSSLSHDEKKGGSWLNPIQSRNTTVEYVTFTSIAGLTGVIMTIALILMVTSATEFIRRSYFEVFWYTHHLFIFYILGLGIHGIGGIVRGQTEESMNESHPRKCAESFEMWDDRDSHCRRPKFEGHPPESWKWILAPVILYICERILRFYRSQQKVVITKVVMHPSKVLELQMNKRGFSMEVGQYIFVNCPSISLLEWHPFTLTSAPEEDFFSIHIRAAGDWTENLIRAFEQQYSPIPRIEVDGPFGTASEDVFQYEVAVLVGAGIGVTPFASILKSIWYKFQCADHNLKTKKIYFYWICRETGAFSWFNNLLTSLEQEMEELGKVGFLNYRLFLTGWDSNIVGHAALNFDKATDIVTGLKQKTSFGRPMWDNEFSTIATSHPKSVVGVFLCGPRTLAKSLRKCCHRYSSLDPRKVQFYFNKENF

Row | effect of a mutation on the interaction | Variant
2 | with no effect | MSRVPSPPPPAEMSSGPVAESWCYTQIKVVKFSYMWTINNFSFCREEMGEVIKSSTFSSGANDKLKWCLRVNPKGLDEESKDYLSLYLLLVSCPKSEVRAKCKFSILNAKGEETKAMESQRAYRFVQGKDWGFKKFIRRDFLLDEANGLLPDDKLTLFCEVSVVQDSVNISGQNTMNMVKVPECRLADELGGLWENSRFTDCCLCVAGQEFQAHKAILAARSPVFSAMFEHEMEESKKNRVEINDVEPEVFKEMMCFIYTGKAPNLDKMADDLLAAADKYALERLKVMCEDALCSNLSVENAAEILILADLHSADQLKTQAVDFINYHASDVLETSGWKSMVVSHPHLVAEAYRSLASAQCPFLGPPRKRLKQS [F102C]

Variants of: B1
Conditions: with ntrk2_human NTRK2, Q16620

Row | effect of a mutation on the interaction | Variant
3 | with no effect | MSRVPSPPPPAEMSSGPVAESWCYTQIKVVKFSYMWTINNFSFCREEMGEVIKSSTFSSGANDKLKWCLRVNPKGLDEESKDYLSLYLLLVSCPKSEVRAKCKFSILNAKGEETKAMESQRAYRFVQGKDWGFKKFIRRDFLLDEANGLLPDDKLTLFCEVSVVQDSVNISGQNTMNMVKVPECRLADELGGLWENSRFTDCCLCVAGQEFQAHKAILAARSPVFSAMFEHEMEESKKNRVEINDVEPEVFKEMMCFIYTGKAPNLDKMADDLLAAADKYALERLKVMCEDALCSNLSVENAAEILILADLHSADQLKTQAVDFINYHASDVLETSGWKSMVVSHPHLVAEAYRSLASAQCPFLGPPRKRLKQS [F102C]

Variants of: B1
Conditions: with ntrk3_human NTRK3, Q16288

Row | effect of a mutation on the interaction | Variant
4 | with no effect | MSRVPSPPPPAEMSSGPVAESWCYTQIKVVKFSYMWTINNFSFCREEMGEVIKSSTFSSGANDKLKWCLRVNPKGLDEESKDYLSLYLLLVSCPKSEVRAKCKFSILNAKGEETKAMESQRAYRFVQGKDWGFKKFIRRDFLLDEANGLLPDDKLTLFCEVSVVQDSVNISGQNTMNMVKVPECRLADELGGLWENSRFTDCCLCVAGQEFQAHKAILAARSPVFSAMFEHEMEESKKNRVEINDVEPEVFKEMMCFIYTGKAPNLDKMADDLLAAADKYALERLKVMCEDALCSNLSVENAAEILILADLHSADQLKTQAVDFINYHASDVLETSGWKSMVVSHPHLVAEAYRSLASAQCPFLGPPRKRLKQS [F102C]

Variants of: B1
Conditions: with pak3_human PAK3, O75914
Chain of pak3_human PAK3, O75914 (O75914 whole entry, looked up): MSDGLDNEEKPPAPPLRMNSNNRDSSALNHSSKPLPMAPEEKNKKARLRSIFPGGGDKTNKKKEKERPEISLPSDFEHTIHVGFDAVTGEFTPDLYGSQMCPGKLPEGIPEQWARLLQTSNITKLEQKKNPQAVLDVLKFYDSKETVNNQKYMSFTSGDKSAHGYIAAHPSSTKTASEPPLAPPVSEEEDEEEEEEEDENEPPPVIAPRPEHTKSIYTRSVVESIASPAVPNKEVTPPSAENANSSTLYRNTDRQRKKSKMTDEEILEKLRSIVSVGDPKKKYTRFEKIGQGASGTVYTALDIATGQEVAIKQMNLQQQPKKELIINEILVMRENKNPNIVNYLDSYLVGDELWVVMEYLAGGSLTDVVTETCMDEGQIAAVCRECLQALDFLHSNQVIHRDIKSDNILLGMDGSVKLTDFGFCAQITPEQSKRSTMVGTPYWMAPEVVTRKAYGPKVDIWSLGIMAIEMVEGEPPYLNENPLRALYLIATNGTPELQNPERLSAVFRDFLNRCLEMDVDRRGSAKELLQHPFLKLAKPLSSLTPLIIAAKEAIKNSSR

Row | effect of a mutation on the interaction | Variant
5 | with no effect | MSRVPSPPPPAEMSSGPVAESWCYTQIKVVKFSYMWTINNFSFCREEMGEVIKSSTFSSGANDKLKWCLRVNPKGLDEESKDYLSLYLLLVSCPKSEVRAKCKFSILNAKGEETKAMESQRAYRFVQGKDWGFKKFIRRDFLLDEANGLLPDDKLTLFCEVSVVQDSVNISGQNTMNMVKVPECRLADELGGLWENSRFTDCCLCVAGQEFQAHKAILAARSPVFSAMFEHEMEESKKNRVEINDVEPEVFKEMMCFIYTGKAPNLDKMADDLLAAADKYALERLKVMCEDALCSNLSVENAAEILILADLHSADQLKTQAVDFINYHASDVLETSGWKSMVVSHPHLVAEAYRSLASAQCPFLGPPRKRLKQS [F102C]

Variants of: B1
Conditions: with prkn_human PRKN

Row | effect of a mutation on the interaction | Variant
6 | with no effect | MSRVPSPPPPAEMSSGPVAESWCYTQIKVVKFSYMWTINNFSFCREEMGEVIKSSTFSSGANDKLKWCLRVNPKGLDEESKDYLSLYLLLVSCPKSEVRAKCKFSILNAKGEETKAMESQRAYRFVQGKDWGFKKFIRRDFLLDEANGLLPDDKLTLFCEVSVVQDSVNISGQNTMNMVKVPECRLADELGGLWENSRFTDCCLCVAGQEFQAHKAILAARSPVFSAMFEHEMEESKKNRVEINDVEPEVFKEMMCFIYTGKAPNLDKMADDLLAAADKYALERLKVMCEDALCSNLSVENAAEILILADLHSADQLKTQAVDFINYHASDVLETSGWKSMVVSHPHLVAEAYRSLASAQCPFLGPPRKRLKQS [F102C]

Variants of: B1
Conditions: with pcbp1_human PCBP1, Q15365
Chain of pcbp1_human PCBP1, Q15365 (Q15365 whole entry): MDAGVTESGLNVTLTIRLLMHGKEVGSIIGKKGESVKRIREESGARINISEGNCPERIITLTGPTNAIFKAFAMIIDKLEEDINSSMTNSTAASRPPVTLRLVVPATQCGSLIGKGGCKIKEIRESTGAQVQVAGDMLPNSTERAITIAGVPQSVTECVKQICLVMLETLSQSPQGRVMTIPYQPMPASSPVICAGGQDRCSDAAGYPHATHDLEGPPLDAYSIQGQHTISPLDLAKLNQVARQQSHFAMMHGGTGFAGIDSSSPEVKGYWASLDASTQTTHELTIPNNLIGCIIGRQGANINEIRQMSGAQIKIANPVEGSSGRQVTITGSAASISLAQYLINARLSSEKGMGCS

Row | effect of a mutation on the interaction | Variant
7 | with no effect | MSRVPSPPPPAEMSSGPVAESWCYTQIKVVKFSYMWTINNFSFCREEMGEVIKSSTFSSGANDKLKWCLRVNPKGLDEESKDYLSLYLLLVSCPKSEVRAKCKFSILNAKGEETKAMESQRAYRFVQGKDWGFKKFIRRDFLLDEANGLLPDDKLTLFCEVSVVQDSVNISGQNTMNMVKVPECRLADELGGLWENSRFTDCCLCVAGQEFQAHKAILAARSPVFSAMFEHEMEESKKNRVEINDVEPEVFKEMMCFIYTGKAPNLDKMADDLLAAADKYALERLKVMCEDALCSNLSVENAAEILILADLHSADQLKTQAVDFINYHASDVLETSGWKSMVVSHPHLVAEAYRSLASAQCPFLGPPRKRLKQS [F102C]

Variants of: B1
Conditions: with pdcd1_human PDCD1, Q15116
Chain of pdcd1_human PDCD1, Q15116 (Q15116 whole entry): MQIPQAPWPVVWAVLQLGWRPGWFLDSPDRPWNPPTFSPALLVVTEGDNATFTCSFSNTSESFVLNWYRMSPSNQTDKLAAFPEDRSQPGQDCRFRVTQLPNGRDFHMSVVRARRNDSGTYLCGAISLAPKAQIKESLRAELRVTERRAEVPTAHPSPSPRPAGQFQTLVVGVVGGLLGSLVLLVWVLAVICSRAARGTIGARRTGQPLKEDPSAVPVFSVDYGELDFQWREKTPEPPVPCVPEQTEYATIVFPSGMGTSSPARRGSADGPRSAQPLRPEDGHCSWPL

Row | effect of a mutation on the interaction | Variant
8 | with no effect | MSRVPSPPPPAEMSSGPVAESWCYTQIKVVKFSYMWTINNFSFCREEMGEVIKSSTFSSGANDKLKWCLRVNPKGLDEESKDYLSLYLLLVSCPKSEVRAKCKFSILNAKGEETKAMESQRAYRFVQGKDWGFKKFIRRDFLLDEANGLLPDDKLTLFCEVSVVQDSVNISGQNTMNMVKVPECRLADELGGLWENSRFTDCCLCVAGQEFQAHKAILAARSPVFSAMFEHEMEESKKNRVEINDVEPEVFKEMMCFIYTGKAPNLDKMADDLLAAADKYALERLKVMCEDALCSNLSVENAAEILILADLHSADQLKTQAVDFINYHASDVLETSGWKSMVVSHPHLVAEAYRSLASAQCPFLGPPRKRLKQS [F102C]

Variants of: B1
Conditions: with pgfrb_human PDGFRB

Row | effect of a mutation on the interaction | Variant
9 | with no effect | MSRVPSPPPPAEMSSGPVAESWCYTQIKVVKFSYMWTINNFSFCREEMGEVIKSSTFSSGANDKLKWCLRVNPKGLDEESKDYLSLYLLLVSCPKSEVRAKCKFSILNAKGEETKAMESQRAYRFVQGKDWGFKKFIRRDFLLDEANGLLPDDKLTLFCEVSVVQDSVNISGQNTMNMVKVPECRLADELGGLWENSRFTDCCLCVAGQEFQAHKAILAARSPVFSAMFEHEMEESKKNRVEINDVEPEVFKEMMCFIYTGKAPNLDKMADDLLAAADKYALERLKVMCEDALCSNLSVENAAEILILADLHSADQLKTQAVDFINYHASDVLETSGWKSMVVSHPHLVAEAYRSLASAQCPFLGPPRKRLKQS [F102C]

Variants of: B1
Conditions: with pdk1_human PDK1, Q15118
Chain of pdk1_human PDK1, Q15118 (Q15118 whole entry, looked up): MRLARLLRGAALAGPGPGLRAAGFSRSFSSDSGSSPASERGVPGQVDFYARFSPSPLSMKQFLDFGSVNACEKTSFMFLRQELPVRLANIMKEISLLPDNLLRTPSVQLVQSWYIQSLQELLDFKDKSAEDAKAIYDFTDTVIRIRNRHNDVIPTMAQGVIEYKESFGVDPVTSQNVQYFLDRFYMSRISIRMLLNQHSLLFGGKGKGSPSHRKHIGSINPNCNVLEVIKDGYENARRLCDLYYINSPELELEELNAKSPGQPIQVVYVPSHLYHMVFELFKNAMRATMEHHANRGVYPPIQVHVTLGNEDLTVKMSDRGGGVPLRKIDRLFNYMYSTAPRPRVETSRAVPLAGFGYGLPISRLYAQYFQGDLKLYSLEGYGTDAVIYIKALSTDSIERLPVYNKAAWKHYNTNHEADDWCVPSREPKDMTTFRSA

Row | effect of a mutation on the interaction | Variant
10 | with no effect | MSRVPSPPPPAEMSSGPVAESWCYTQIKVVKFSYMWTINNFSFCREEMGEVIKSSTFSSGANDKLKWCLRVNPKGLDEESKDYLSLYLLLVSCPKSEVRAKCKFSILNAKGEETKAMESQRAYRFVQGKDWGFKKFIRRDFLLDEANGLLPDDKLTLFCEVSVVQDSVNISGQNTMNMVKVPECRLADELGGLWENSRFTDCCLCVAGQEFQAHKAILAARSPVFSAMFEHEMEESKKNRVEINDVEPEVFKEMMCFIYTGKAPNLDKMADDLLAAADKYALERLKVMCEDALCSNLSVENAAEILILADLHSADQLKTQAVDFINYHASDVLETSGWKSMVVSHPHLVAEAYRSLASAQCPFLGPPRKRLKQS [F102C]

Variants of: B1
Conditions: with PIK3C2B

Row | effect of a mutation on the interaction | Variant
11 | with no effect | MSRVPSPPPPAEMSSGPVAESWCYTQIKVVKFSYMWTINNFSFCREEMGEVIKSSTFSSGANDKLKWCLRVNPKGLDEESKDYLSLYLLLVSCPKSEVRAKCKFSILNAKGEETKAMESQRAYRFVQGKDWGFKKFIRRDFLLDEANGLLPDDKLTLFCEVSVVQDSVNISGQNTMNMVKVPECRLADELGGLWENSRFTDCCLCVAGQEFQAHKAILAARSPVFSAMFEHEMEESKKNRVEINDVEPEVFKEMMCFIYTGKAPNLDKMADDLLAAADKYALERLKVMCEDALCSNLSVENAAEILILADLHSADQLKTQAVDFINYHASDVLETSGWKSMVVSHPHLVAEAYRSLASAQCPFLGPPRKRLKQS [F102C]

Variants of: B1
Conditions: with pk3ca_human PIK3CA

Row | effect of a mutation on the interaction | Variant
12 | with no effect | MSRVPSPPPPAEMSSGPVAESWCYTQIKVVKFSYMWTINNFSFCREEMGEVIKSSTFSSGANDKLKWCLRVNPKGLDEESKDYLSLYLLLVSCPKSEVRAKCKFSILNAKGEETKAMESQRAYRFVQGKDWGFKKFIRRDFLLDEANGLLPDDKLTLFCEVSVVQDSVNISGQNTMNMVKVPECRLADELGGLWENSRFTDCCLCVAGQEFQAHKAILAARSPVFSAMFEHEMEESKKNRVEINDVEPEVFKEMMCFIYTGKAPNLDKMADDLLAAADKYALERLKVMCEDALCSNLSVENAAEILILADLHSADQLKTQAVDFINYHASDVLETSGWKSMVVSHPHLVAEAYRSLASAQCPFLGPPRKRLKQS [F102C]

Variants of: B1
Conditions: with pk3cb_human PIK3CB

Row | effect of a mutation on the interaction | Variant
13 | with no effect | MSRVPSPPPPAEMSSGPVAESWCYTQIKVVKFSYMWTINNFSFCREEMGEVIKSSTFSSGANDKLKWCLRVNPKGLDEESKDYLSLYLLLVSCPKSEVRAKCKFSILNAKGEETKAMESQRAYRFVQGKDWGFKKFIRRDFLLDEANGLLPDDKLTLFCEVSVVQDSVNISGQNTMNMVKVPECRLADELGGLWENSRFTDCCLCVAGQEFQAHKAILAARSPVFSAMFEHEMEESKKNRVEINDVEPEVFKEMMCFIYTGKAPNLDKMADDLLAAADKYALERLKVMCEDALCSNLSVENAAEILILADLHSADQLKTQAVDFINYHASDVLETSGWKSMVVSHPHLVAEAYRSLASAQCPFLGPPRKRLKQS [F102C]

Variants of: B1
Conditions: with pk3cg_human PIK3CG

Row | effect of a mutation on the interaction | Variant
14 | with no effect | MSRVPSPPPPAEMSSGPVAESWCYTQIKVVKFSYMWTINNFSFCREEMGEVIKSSTFSSGANDKLKWCLRVNPKGLDEESKDYLSLYLLLVSCPKSEVRAKCKFSILNAKGEETKAMESQRAYRFVQGKDWGFKKFIRRDFLLDEANGLLPDDKLTLFCEVSVVQDSVNISGQNTMNMVKVPECRLADELGGLWENSRFTDCCLCVAGQEFQAHKAILAARSPVFSAMFEHEMEESKKNRVEINDVEPEVFKEMMCFIYTGKAPNLDKMADDLLAAADKYALERLKVMCEDALCSNLSVENAAEILILADLHSADQLKTQAVDFINYHASDVLETSGWKSMVVSHPHLVAEAYRSLASAQCPFLGPPRKRLKQS [F102C]

Variants of: B1
Conditions: with p85b_human PIK3R2, O00459
Chain of p85b_human PIK3R2, O00459 (O00459 whole entry): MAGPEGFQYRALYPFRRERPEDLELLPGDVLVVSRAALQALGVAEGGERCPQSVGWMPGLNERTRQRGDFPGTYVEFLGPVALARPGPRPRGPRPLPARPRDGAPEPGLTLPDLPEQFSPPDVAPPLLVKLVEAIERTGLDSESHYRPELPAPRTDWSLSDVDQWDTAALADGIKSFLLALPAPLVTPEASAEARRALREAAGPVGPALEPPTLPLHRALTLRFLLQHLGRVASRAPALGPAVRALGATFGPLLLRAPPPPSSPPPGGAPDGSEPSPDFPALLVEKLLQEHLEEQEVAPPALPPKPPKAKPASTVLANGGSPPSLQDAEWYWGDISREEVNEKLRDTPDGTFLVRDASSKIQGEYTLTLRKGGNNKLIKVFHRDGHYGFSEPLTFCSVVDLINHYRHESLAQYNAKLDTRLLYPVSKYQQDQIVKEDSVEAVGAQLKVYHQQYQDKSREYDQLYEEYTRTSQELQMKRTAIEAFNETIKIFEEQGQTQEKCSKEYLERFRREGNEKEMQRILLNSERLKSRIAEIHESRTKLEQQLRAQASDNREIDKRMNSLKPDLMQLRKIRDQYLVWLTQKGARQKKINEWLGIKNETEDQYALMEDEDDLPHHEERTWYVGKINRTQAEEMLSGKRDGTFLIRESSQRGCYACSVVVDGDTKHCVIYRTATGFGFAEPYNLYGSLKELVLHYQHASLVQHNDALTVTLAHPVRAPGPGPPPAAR

Row | effect of a mutation on the interaction | Variant
15 | with no effect | MSRVPSPPPPAEMSSGPVAESWCYTQIKVVKFSYMWTINNFSFCREEMGEVIKSSTFSSGANDKLKWCLRVNPKGLDEESKDYLSLYLLLVSCPKSEVRAKCKFSILNAKGEETKAMESQRAYRFVQGKDWGFKKFIRRDFLLDEANGLLPDDKLTLFCEVSVVQDSVNISGQNTMNMVKVPECRLADELGGLWENSRFTDCCLCVAGQEFQAHKAILAARSPVFSAMFEHEMEESKKNRVEINDVEPEVFKEMMCFIYTGKAPNLDKMADDLLAAADKYALERLKVMCEDALCSNLSVENAAEILILADLHSADQLKTQAVDFINYHASDVLETSGWKSMVVSHPHLVAEAYRSLASAQCPFLGPPRKRLKQS [F102C]
